Test results taken from US20250313625A1 (ELPISCIENCE SUZHOU BIOPHARMA, published 2025).
Read-outs that look alike come from different tables or passages of the source.

Legend:
[1] = molecular target: T1, LAG3 D1 domain extra loop peptide (biotin labelled (site not stated)); assay: ELISA format I: biotin labelled LAG3 D1 domain extra loop peptide on plate coated antibody; axis printed as Ab Conc. (nM)
T1 peptide: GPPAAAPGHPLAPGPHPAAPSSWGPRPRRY
Method: (§1) In ELISA binding assay of format I (FIG. 9A), biotin labelled LAG3 D1 domain extra loop peptide was incubated with ELISA microplate coated anti-LAG3 antibodies. After washing, HRP labeled anti-SA 2nd antibody (Sigma) was added and incubated at 37° C. for 1 hour. Then, 100 μl/well of TMB solution (Biotechnology) was added. After incubation for 15 minutes at room temperature, the reaction was stopped by the addition of 50 μl of 1N HCl. OD 450 nm was read. In ELISA binding assay of format II (FIG. 9B), biotin labelled LAG3 D1 domain extra loop peptide and anti-LAG3 antibodies were co-incubated in ELISA microplate coated with SA. After washing, HRP labeled anti-human Fc 2nd antibody (Sigma) was added and incubated at 37° C. for 1 hour. Then, 100 μl/well of TMB solution (Biotechnology) was added. After incubation for 15 minutes at room temperature, the reaction was stopped by the addition of 50 μl of 1N HCl. OD 450 nm was read.

[2] = molecular target: T1, LAG3 D1 domain extra loop peptide; assay: ELISA format II: biotin labelled LAG3 D1 domain extra loop peptide and antibody co-incubated on streptavidin coated plate, anti-human Fc detection
Method: as §1

[3] = molecular target: T2, human LAG3 (form used in Octet, Biacore and HDX-MS not given) (human, UniProt P18627 23-450, limits assumed); assay: BLI (Octet), 1:1 fit
T2 sequence (looked up): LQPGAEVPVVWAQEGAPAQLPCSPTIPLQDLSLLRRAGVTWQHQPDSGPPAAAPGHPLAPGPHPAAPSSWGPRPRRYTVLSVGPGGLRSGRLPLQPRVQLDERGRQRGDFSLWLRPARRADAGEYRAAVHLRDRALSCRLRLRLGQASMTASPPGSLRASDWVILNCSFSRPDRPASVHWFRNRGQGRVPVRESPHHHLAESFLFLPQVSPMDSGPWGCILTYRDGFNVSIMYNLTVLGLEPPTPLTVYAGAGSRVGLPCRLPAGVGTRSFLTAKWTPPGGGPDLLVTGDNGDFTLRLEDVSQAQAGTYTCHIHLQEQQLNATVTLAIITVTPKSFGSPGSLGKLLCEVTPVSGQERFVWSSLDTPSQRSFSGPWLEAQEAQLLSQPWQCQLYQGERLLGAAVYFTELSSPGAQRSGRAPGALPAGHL
Method: The purified chimeric antibodies were characterized for binding affinity against human LAG3 using Bio-Layer Interferometry technology (Octet system). The association and dissociation curves were fit with 1:1 binding model, and the Ka/Kd/KD values for each antibody were calculated.

[4] = molecular target: T2, human LAG3 (form used in Octet, Biacore …); assay: BLI (Octet), 1:1 fit; remark: listed apart in the source
Method: (§2) The association and dissociation curves were fit with 1:1 binding model, and the Ka/Kd/KD values for each antibody were calculated.
as §2

[5] = molecular target: T3, human LAG3, full length, stably expressed on cells (human, UniProt P18627 23-525); assay: FACS on 293F cells stably expressing human LAG3
T3 construct: whole, on cells; also called CHOK1-human LAG3
T3 sequence (looked up): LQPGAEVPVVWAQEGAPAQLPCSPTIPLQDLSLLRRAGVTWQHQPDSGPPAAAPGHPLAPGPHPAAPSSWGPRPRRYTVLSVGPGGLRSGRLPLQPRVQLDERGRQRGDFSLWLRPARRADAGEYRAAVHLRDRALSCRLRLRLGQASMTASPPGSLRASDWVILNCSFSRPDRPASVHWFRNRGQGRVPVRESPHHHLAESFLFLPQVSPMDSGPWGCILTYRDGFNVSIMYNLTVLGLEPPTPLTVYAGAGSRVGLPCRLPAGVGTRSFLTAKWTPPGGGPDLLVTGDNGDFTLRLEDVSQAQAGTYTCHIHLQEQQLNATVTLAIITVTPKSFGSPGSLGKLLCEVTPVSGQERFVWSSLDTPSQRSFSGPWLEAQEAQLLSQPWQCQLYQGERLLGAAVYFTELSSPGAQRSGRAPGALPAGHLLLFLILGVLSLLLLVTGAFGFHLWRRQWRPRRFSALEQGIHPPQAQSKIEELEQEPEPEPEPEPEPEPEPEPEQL
Method: Briefly the antibodies were incubated with 2×10⁵ target cells at 4° C. for 1 hour. After washing, fluorescence labeled anti-mouse IgG 2nd antibody (Life Technologies) was added and incubated at 4° C. for 1 hour. Geometric median fluorescence intensity (MFI) was detected and EC₅₀ was calculated using GraphPad Prism9.0.
(§3) MFI was detected and EC₅₀ was calculated using GraphPad Prism9.0.

[6] = molecular target: T3, human LAG3, full length, stably …; assay: FACS on CHOK1 cells stably expressing human LAG3
Method: as §3

[7] = molecular target: T4, mFc tagged human LAG3 ECD recombinant protein (human, UniProt P18627 23-450); assay: competitive FACS: mFc-LAG3 ECD binding to Raji cells (MHC II)
T4 construct: extracellular domain; purchased from Biointron; not shown: mouse IgG Fc (mFc) tag
T4 sequence (looked up): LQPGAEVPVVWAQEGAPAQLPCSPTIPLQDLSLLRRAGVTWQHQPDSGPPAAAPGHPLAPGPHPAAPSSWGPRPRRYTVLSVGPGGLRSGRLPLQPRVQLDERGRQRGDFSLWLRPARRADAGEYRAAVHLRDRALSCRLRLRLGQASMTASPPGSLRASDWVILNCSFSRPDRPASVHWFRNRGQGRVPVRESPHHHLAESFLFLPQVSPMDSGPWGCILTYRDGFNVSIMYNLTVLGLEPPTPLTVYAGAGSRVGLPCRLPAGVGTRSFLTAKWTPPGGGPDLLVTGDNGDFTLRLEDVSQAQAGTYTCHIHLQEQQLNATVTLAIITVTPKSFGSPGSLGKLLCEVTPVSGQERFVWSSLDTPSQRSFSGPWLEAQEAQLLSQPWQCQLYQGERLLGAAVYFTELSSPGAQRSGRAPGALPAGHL
Method: (§4) Activity of the purified chimeric antibodies to block LAG3 and MHC II interaction was determined by competitive FACS assay. […] After washing, dye labeled anti-mouse Fc 2nd antibody (Sigma) was added and incubated at 37° C. for 1 hour. Fluorescence intensity was detected.

[8] = molecular target: T5, hFc tagged human LAG3 ECD recombinant protein (human, UniProt P18627 23-450); assay: competitive ELISA format II: biotin hFc-LAG3 ECD binding to coated His-FGL1
T5 construct: range 23-450; also called biotin labelled hFc tagged human LAG3 ECD; not shown: human IgG Fc tag
T5 sequence (looked up): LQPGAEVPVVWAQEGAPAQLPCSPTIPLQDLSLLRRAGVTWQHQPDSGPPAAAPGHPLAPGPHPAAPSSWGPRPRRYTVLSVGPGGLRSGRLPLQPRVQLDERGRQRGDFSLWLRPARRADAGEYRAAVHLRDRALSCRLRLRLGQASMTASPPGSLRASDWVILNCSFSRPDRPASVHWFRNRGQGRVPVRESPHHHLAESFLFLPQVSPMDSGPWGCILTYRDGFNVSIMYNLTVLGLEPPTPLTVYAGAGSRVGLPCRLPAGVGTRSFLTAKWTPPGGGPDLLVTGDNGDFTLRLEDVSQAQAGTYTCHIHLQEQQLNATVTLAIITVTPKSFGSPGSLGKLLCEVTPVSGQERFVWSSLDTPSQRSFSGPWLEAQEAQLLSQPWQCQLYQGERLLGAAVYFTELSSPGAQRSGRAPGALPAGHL
Method: After washing, HRP labeled anti-His 2nd antibody (Sigma) was added and incubated at 37° C. for 1 hour. Then, 100 μl/well of TMB solution (Biotechnology) was added. After incubation for 15 minutes at room temperature, the reaction was stopped by the addition of 50 μl of 1N HCl. OD 450 nm was read. […] After washing, HRP labeled anti-SA 2nd antibody (Sigma) was added and incubated at 37° C. for 1 hour. Then, 100 μl/well of TMB solution (Biotechnology) was added. After incubation for 15 minutes at room temperature, the reaction was stopped by the addition of 50 μl of 1N HCl. OD 450 nm was read. […] The competition assay of format III is a competitive FACS assay. […] After washing, dye labeled anti-His 2nd antibody (Sigma) was added and incubated at 37° C. for 1 hour. Fluorescence intensity was detected.

[9] = molecular target: T4, mFc tagged human LAG3 ECD recombinant …; assay: competitive FACS: mFc tagged human LAG3 ECD binding to MHC II on Raji cells
Method: as §4

[10] = molecular target: T4, mFc tagged human LAG3 ECD recombinant …; assay: competitive ELISA: mFc tagged human LAG3 ECD binding to plate coated LSECtin ECD
Method: Activity of the purified chimeric antibodies to block LAG3 and LSECtin interaction was determined by competitive ELISA assay. […] After washing, HRP labeled anti-mouse Fc 2nd antibody (Sigma) was added and incubated at 37° C. for 1 hour. Then, 100 μl/well of TMB solution (Biotechnology) was added. After incubation for 15 minutes at room temperature, the reaction was stopped by the addition of 50 μl of 1N HCl. OD 450 nm was read.

[11] = molecular target: T6, human LAG3 ECD recombinant protein (plate coated, tag not stated) (human, UniProt P18627 23-450); assay: competitive ELISA format I: His-FGL1 binding to coated LAG3 ECD
T6 construct: extracellular domain
T6 sequence (looked up): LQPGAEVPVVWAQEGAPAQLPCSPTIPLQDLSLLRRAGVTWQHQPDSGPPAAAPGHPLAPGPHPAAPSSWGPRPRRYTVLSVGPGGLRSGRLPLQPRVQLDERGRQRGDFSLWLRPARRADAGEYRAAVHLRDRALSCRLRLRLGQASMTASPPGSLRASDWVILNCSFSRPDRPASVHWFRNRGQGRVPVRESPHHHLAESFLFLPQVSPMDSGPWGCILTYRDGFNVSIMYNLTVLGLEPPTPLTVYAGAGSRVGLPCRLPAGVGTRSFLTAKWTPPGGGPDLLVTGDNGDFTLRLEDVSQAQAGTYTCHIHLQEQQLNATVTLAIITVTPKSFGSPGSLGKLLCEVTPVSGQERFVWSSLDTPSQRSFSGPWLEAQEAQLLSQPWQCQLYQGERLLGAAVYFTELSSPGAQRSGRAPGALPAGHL

[12] = molecular target: T4, mFc tagged human LAG3 ECD recombinant …; assay: competitive FACS: mFc tagged human LAG3 ECD binding to MHC II on Raji cells; remark: listed apart in the source
Method: as §4

B1: BMS-986016 (antibody, V domains shown)
VH: QVQLQQWGAGLLKPSETLSLTCAVYGGSFSDYYWNWIRQPPGKGLEWIGEINHRGSTNSNPSLKSRVTLSLDTSKNQFSLKLRSVTAADTAVYYCAFGYSDYEYNWFDPWGQGTLVTVSS
VL: EIVLTQSPATLSLSPGERATLSCRASQSISSYLAWYQQKPGQAPRLLIYDASNRATGIPARFSGSGSGTDFTLTISSLEPEDFAVYYCQQRSNWPLTFGQGTNLEIK
EC50 (read off the curve) [1]: ~0.08 nM
EC50 (read off the curve) [2]: ~0.2 nM

B2: 021c (antibody, human IgG4, V domains shown)
VH: DIQLQESGPGLVKPSQSLSLTCSVTGYSITSGYYWNWIRQFPGNKLEWMGDISYDGGNNYNPSLKNRISITRDTSKNQFFLKLNSVTTEDTATYYCARDITLTGAMDYWGQGTSVTVSS
VL: DIVLTQSPASLAVSLGQRATISCRASESVDNYGISFMHWYQQRPGQPPKLLIYRASNLESGIPARFSGSGSRTDFTLTINPVETDDVATYYCQQSNKDPYTFGGGTKLEIK
notes: human IgG4 S228P / kappa chimeric antibody; also called chimeric antibody 021; not shown: human kappa light chain constant region (pcDNA3.4-hIgGk vector)
Kd [3]: 6.52 nM
koff [3]: 0.000905 s⁻¹
kon [3]: 139000 M⁻¹ s⁻¹
Kd [4]: 5.34 nM
koff [4]: 0.00271 s⁻¹
kon [4]: 508000 M⁻¹ s⁻¹
EC50 [5]: 15.6 nM
EC50 [6]: 1.6 nM
TOP MFI [6]: 620
IC50 [7]: 4.2 nM
TOP blocking (%) [7]: 99.9%
IC50 [8]: 1.93 nM
TOP blocking (%) [8]: 82%
%Blocking at 2 nM [9]: 13.7%
%Blocking at 4 nM [9]: 20.1%
%Blocking at 8 nM [9]: 76.8%
%Blocking at 4 nM [10]: 27.4%
%Blocking at 20 nM [10]: 91.4%
%Blocking at 100 nM [10]: 95.6%
binding result [1]: no binding (tested: about 300 nM)

B3: 029c (antibody, human IgG4, V domains shown)
VH: DVKLVESGEDLVKPGGSLKLSCAASGFTFSSYAMSWVRQTPEKRLEWVAYVTSGGDYIYYADTVKGRFTISRDDVRNTLYLQMSSLKSEDTAMYYCTRVAYDYEWYFDVWGTGAPVTVSS
VL: DIVMTQSHKFMSTSVGDRVSITCKASQDVTTAVAWYQQKPGQSPKLLIYSASYRYTGVSDRFTGSGSGTDFTFTISSVQAEDLALYYCQQHDSSPWTFGGGTKLEIK
notes: human IgG4 S228P / kappa chimeric antibody; also called chimeric antibody 029; not shown: human kappa light chain constant region (pcDNA3.4-hIgGk vector)
Kd [3]: 3.58 nM
koff [3]: 0.00139 s⁻¹
kon [3]: 389000 M⁻¹ s⁻¹
Kd [4]: 7.7 nM
koff [4]: 0.0268 s⁻¹
kon [4]: 3.48e+06 M⁻¹ s⁻¹
EC50 [5]: 1.6 nM
TOP MFI [5]: 416
IC50 [7]: 4.2 nM
TOP blocking (%) [7]: 96.4%
Blocking ratio at 66.7 nM (%) [11]: 62.6%
IC50 [8]: 2 nM
TOP blocking (%) [8]: 84.5%
%Blocking at 2 nM [9]: 9.7%
%Blocking at 4 nM [9]: 24.1%
%Blocking at 8 nM [9]: 84.3%
%Blocking at 4 nM [12]: 21.5%
%Blocking at 8 nM [12]: 96.7%
%Blocking at 4 nM [10]: 61.6%
%Blocking at 20 nM [10]: 92.7%
%Blocking at 100 nM [10]: 97%
binding result [1]: no binding (tested: about 300 nM)
